The text below walks through data of US8653023.

The data set addresses protein phosphatase 2A (PP2A), endogenous, in N27 cell lysate.

B1: protein kinase C delta (PKCδ), endogenous, in N27 cell lysate (immortalized rat fetal mesencephalic dopaminergic neuronal cells) (protein)
chain: MAPFLRISFNSYELGSLQAEDDASQPFCAVKMKEALTTDRGKTLVQKKPTMYPEWKSTFDAHIYEGRVIQIVLMRAAEDPMSEVTVGVSVLAERCKKNNGKAEFWLDLQPQAKVLMCVQYFLEDGDCKQSMRSEEEAMFPTMNRRGAIKQAKIHYIKNHEFIATFFGQPTFCSVCKEFVWGLNKQGYKCRQCNAAIHKKCIDKIIGRCTGTATNSRDTIFQKERFNIDMPHRFKVYNYMSPTFCDHCGTLLWGLVKQGLKCEDCGMNVHHKCREKVANLCGINQKLLAEALNQVTQKASRKPETPETVGIYQGFEKKTAVSGNDIPDNNGTYGKIWEGSNRCRLENFTFQKVLGKGSFGKVLLAELKGKERYFAIKYLKKDVVLIDDDVECTMVEKRVLALAWENPFLTHLICTFQTKDHLFFVMEFLNGGDLMFHIQDKGRFELYRATFYAAEIICGLQFLHGKGIIYRDLKLDNVMLDKDGHIKIADFGMCKENIFGENRASTFCGTPDYIAPEILQGLKYSFSVDWWSFGVLLYEMLIGQSPFHGDDEDELFESIRVDTPHYPRWITKESKDIMEKLFERDPAKRLGVTGNIRLHPFFKTINWNLLEKRKVEPPFKPKVKSPSDYSNFDPEFLNEKPQLSFSDKNLIDSMDQTAFKGFSFVNPKYEQFLE
B1: the “32P-kinase assay: phosphorylation of immunoprecipitated PP2A” value was “PP2A immunoprecipitated from N27 cells was effectively phosphorylated by PKCδ immunoprecipitates”.
